# Reference: patent US6927286B1, “Bleomycin gene cluster components and their uses” (The Regents of the University of California, priority 1999, dated 2005)
# T1: apo-BlmI (type II peptidyl carrier protein BlmI, apo-form, produced from pBS2)
# T1 sequence: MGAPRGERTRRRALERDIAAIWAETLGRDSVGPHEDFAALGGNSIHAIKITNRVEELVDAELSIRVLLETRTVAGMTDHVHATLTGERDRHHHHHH
# T2: holo-BlmI (4'-phosphopantetheinylated BlmI, produced from pBS2)
# T2 sequence: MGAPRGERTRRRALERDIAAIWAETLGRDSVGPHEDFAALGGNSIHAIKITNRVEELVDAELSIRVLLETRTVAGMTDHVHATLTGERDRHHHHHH
# T3: Gsp PPTase (Aneurinibacillus migulanus, UniProt P40683)
# T3 construct: expressed in transfected cells; host or cells: E. coli OG7001 (pBS2/pDPT-Gsp)
# T3 sequence (P40683 whole entry, looked up): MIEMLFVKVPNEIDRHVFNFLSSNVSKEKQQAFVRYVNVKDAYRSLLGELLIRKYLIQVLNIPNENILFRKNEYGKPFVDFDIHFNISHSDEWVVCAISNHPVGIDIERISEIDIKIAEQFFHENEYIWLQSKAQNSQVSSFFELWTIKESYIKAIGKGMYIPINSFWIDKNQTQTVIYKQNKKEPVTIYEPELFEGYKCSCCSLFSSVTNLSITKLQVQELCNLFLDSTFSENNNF
# T4: apo-BlmI (type II peptidyl carrier protein BlmI, apo-form, produced from pBS2)
# T4 chain: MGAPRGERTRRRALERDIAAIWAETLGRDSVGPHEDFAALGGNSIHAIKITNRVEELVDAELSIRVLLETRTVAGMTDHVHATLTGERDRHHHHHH
# T5: TcmM (Streptomyces glaucescens, UniProt P12884)
# T5 construct: His6 (N); His6 (C); made in house; host or cells: E. coli BL21(DE3) (pET28a-TcmM)
# T5 sequence (P12884 1-83): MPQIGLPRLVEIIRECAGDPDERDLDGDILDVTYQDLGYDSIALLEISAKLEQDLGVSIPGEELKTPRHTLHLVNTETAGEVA
# T5 sequence (Q9F0Q6 1-246 partner): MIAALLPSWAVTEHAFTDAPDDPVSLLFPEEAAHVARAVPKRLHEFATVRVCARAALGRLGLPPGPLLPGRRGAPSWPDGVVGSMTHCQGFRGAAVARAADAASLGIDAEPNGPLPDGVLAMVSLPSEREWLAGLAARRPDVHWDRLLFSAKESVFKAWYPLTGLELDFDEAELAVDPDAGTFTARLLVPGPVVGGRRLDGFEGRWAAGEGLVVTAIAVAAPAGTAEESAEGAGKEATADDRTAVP
# Assays:
# [1] = tested on: T1, apo-BlmI (type II peptidyl carrier protein BlmI, apo-form, produced from pBS2)
# [2] = tested on: T2, holo-BlmI (4'-phosphopantetheinylated BlmI, produced from pBS2)
# [3] = biological target: apo-BlmI (type II peptidyl carrier protein BlmI, apo-form, produced from pBS2) (Streptomyces verticillus ATCC15003); assay: cell-based or functional assay
# [4] = tested on: E. coli endogenous PPTases; assay: In vivo 4′-phosphopantetheinylation of BlmI in E. coli OG7001 without Gsp; assay type: cell-based; conditions: E. coli OG7001(pBS2), HPLC analysis
# Source text: (§1) To examine 4′-phosphopantetheinylation of BlmI in vivo, we chose E. coli OG7001 as the expression host, which is a β-alanine auxotroph derived from E. coli BL21(DE3) by P1 co-transduction of the panD mutation from E. coli SJ16 (Epple et al. (1998) J. Bacteriol. 180: 4950-4954). Upon introduction of pBS2 into E. coli OG7001, blmI was exceptionally well expressed and the overproduced BlmI protein was readily purified. […] To circumvent the poor endogenous PPTase activity, we next co-expressed blmI with the gsp gene, which was isolated from the gramicidin S producer Bacillus brevis, and encoded a PPTase that was known to 4′-phosphopantetheinylate heterologously produced PCPs in E. coli (Lambalot et al. (1996) Chem. Biol. 3: 923-936; Ku et al. (1997) Chem. Biol. 4: 203-207). We co-transformed pDPT-Gsp, in which the expression of the gsp gene was under the control of the T5/Lac promoter (Ku et al. (1997) Chem. Biol. 4: 203-207), and pBS2 into E. coli OG7001. BlmI was again very well expressed and the resulting BlmI protein was similarly purified. […]
# (§2) Samples of BlmI (30-70 μg) purified from E. coli OG7001(pBS2) or E. coli OG7001(pBS2/pDPT-Gsp) were analyzed on a Nova-Pak C18 column (5 mm×10, Waters, Milford, Mass.) using a Rainin DMAX HPLC unit. […]
# Gsp PPTase = biological target: T3, Gsp PPTase; assay: In vivo 4′-phosphopantetheinylation of BlmI co-expressed with gsp in E. coli OG7001; assay type: cell-based; conditions: E. coli OG7001(pBS2/pDPT-Gsp), HPLC analysis
# Source text: as §1, §2
# apo-BlmI = assay: In vitro 4′-phosphopantetheinylation of BlmI by Sfp with [3H-pantetheine]-CoA; assay type: biochemical, Streptomyces verticillus; conditions: autoradiographic analysis
# Method: To investigate 4′-phosphopantetheinylation of BlmI in vitro, we chose the Sfp protein as the preferred PPTase, which had been isolated before from the surfactin producer Bacillus subtilis (Nakano et al. (1992) Mol. Gen. Genet. 232: 313-321).
# Expression of sfp in E. coli MV1190(pUC8-Sfp), purification of the Sfp PPTase to homogeneity, and 4′-phosphopantetheinylation of apo-BlmI by Sfp in vitro were carried out essentially according to literature procedures (Quadri et al. (1998) Biochemistry 37: 1585-1595; Nakano et al. (1992) Mol. Gen. Genet. 232: 313-321). A typical 100 μl assay solution contained 26 μM apo-BlmI, 2.9 μM Sfp, 25 μM [^3H-pantetheine]-CoA (0.9 μCi, 40 Ci/mM), 10 mM MgCl2, and 5 mM DTT, in 75 mM MES/NaOAc buffer, pH 6.0. After 30 min incubation at 37° C., the assays were stopped by addition of 5 μl of bovine serum albumin (0.2 mg/ml) and 0.9 ml of cold 10% (v/v) trichloroacetic acid (TCA). The precipitated proteins were collected by centrifugation at 14,000 rpm, 20 min, 4° C. (Eppendorf 5415C centrifuge), washed with 10% TCA three times, and resolved by SDS-PAGE on 15% gel. The ^3H-activity incorporated into holo-BlmI was similarly determined by autoradiography as described for in vivo labeling of holo-Blm with [3-^3H]-β-alanine.
# [5] = biological target: T4, apo-BlmI (type II peptidyl carrier …)
# MBlmX-2 = assay: In vitro phosphopantetheinylation assay of PptA; conditions: (3H)-(pantetheinyl)-CoASH, autoradiography
# BlmVIII = assay: In vitro phosphopantetheinylation assay of PptA; assay type: biochemical, S. verticillus; conditions: (3H)-(pantetheinyl)-CoASH, autoradiography
# BlmI = assay: In vitro phosphopantetheinylation assay of PptA; conditions: (3H)-(pantetheinyl)-CoASH, autoradiography
# TcmM = biological target: T5, TcmM; assay: In vitro phosphopantetheinylation assay of PptA; assay type: biochemical, S. glaucescens; conditions: (3H)-(pantetheinyl)-CoASH, autoradiography
# Chain of BlmVIII (as listed by the source, one chain of several): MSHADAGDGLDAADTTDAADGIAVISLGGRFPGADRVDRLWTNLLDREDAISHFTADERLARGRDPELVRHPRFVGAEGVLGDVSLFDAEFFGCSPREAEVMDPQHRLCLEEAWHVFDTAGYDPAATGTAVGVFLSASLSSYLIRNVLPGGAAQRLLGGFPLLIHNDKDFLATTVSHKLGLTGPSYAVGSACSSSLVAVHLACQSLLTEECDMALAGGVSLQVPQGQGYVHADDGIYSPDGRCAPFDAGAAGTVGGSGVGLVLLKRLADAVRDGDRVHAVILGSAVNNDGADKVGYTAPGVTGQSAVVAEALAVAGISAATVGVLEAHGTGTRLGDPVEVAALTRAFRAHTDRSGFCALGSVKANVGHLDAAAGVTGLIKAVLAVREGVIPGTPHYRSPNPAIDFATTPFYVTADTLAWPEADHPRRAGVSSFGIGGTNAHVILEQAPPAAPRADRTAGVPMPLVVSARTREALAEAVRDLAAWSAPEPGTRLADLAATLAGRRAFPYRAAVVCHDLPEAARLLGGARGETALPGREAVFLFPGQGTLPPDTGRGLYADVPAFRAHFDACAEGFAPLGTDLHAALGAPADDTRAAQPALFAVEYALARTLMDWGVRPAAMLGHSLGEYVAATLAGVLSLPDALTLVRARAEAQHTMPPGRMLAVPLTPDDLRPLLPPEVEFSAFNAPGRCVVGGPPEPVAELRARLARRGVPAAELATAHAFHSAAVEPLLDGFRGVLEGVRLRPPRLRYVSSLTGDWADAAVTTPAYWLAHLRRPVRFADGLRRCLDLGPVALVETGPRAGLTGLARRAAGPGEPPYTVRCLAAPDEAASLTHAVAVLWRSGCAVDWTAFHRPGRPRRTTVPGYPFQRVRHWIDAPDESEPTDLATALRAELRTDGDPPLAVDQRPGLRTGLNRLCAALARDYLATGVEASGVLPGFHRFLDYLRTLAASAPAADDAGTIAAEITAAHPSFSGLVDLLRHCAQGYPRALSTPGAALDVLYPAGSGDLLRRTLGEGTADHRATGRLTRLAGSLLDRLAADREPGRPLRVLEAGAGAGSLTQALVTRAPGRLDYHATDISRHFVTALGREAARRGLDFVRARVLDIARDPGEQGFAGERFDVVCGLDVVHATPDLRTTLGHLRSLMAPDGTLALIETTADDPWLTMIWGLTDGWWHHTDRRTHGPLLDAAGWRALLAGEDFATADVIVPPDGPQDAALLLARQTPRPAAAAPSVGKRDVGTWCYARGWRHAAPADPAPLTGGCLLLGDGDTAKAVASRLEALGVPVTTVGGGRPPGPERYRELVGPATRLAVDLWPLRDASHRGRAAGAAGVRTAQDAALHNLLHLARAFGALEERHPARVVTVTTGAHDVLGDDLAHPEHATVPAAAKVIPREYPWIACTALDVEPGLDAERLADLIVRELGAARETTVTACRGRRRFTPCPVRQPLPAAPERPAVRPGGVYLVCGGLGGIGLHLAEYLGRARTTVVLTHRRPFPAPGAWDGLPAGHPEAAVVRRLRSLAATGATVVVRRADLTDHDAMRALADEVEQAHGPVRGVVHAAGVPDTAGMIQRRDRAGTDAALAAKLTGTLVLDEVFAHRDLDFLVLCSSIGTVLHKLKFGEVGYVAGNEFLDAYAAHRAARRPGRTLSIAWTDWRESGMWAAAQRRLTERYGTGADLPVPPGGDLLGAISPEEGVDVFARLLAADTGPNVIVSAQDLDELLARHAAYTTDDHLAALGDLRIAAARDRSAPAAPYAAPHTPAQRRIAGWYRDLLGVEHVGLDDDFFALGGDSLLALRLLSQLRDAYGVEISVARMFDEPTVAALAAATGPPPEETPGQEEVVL
# Chain of MBlmX-2 (as listed by the source, one chain of several): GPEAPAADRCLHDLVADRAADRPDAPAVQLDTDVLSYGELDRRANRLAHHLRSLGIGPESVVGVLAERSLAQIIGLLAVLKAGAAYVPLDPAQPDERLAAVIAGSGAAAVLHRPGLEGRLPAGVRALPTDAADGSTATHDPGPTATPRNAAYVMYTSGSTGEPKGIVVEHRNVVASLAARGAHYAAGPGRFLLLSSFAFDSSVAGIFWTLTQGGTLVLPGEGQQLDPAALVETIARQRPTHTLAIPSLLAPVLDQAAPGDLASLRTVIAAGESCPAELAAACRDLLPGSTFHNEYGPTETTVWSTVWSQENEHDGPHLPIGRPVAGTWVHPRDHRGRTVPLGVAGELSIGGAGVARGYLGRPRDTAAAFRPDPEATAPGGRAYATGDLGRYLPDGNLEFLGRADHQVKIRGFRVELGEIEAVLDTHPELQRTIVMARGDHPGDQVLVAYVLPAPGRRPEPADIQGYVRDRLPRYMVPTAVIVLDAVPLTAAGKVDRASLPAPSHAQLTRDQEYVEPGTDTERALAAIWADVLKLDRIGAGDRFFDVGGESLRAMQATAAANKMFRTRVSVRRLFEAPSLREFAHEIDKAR
molecule,measurement,setting,value
Val-A (adenylation domain of a type I NRPS from a gene cluster of Sv ATCC15003 unrelated to BLM biosynthesis),"in vitro aminoacylation in trans with L-[^14C(U)]valine and ATP, SDS-PAGE and autoradiography",[1],"nor incubation of L-[^14C(U)]valine with the Val-A and apo-BlmI proteins, resulted in the detection of ^14C-labeled BlmI protein"
same,"in vitro aminoacylation in trans with L-[^14C(U)]valine and ATP, SDS-PAGE and autoradiography",[2],the holo-BlmI was specifically labeled by L-[^14C(U)]valine in the presence of Val-A
Gsp PPTase from the gramicidin S producer Bacillus brevis (from UniProt P40683 1-237) (enzyme),"in vivo 4′-phosphopantetheinylation on co-expression with gsp, HPLC analysis",[3],> 60%
"BlmI: type II peptidyl carrier protein of 90 amino acids encoded by blmI (protein, left off: small tags and cut ends, type II peptidyl carrier protein of 90 amino acids encoded by blmI) MGAPRGERTRRRALERDIAAIWAETLGRDSVGPHEDFAALGGNSIHAIKITNRVEELVDAELSIRVLLETRTVAGMTDHVHATLTGERDRHHHHHH",form of purified BlmI,[4],essentially in the apo-form
same,overproduced BlmI modified into the holo-BlmI protein,Gsp PPTase,at least 60%
Sfp PPTase from the surfactin producer Bacillus subtilis (protein) MKIYGIYMDRPLSQEENERFMSFISPEKREKCRRFYHKEDAHRTLLGDVLVRSVISRQYQLDKSDIRFSTQEYGKPCIPDLPDAHFNISHSGRWVICAFDSQPIGIDIEKTKPISLEIAKRFFSKTEYSDLLAKDKDEQTDYFYHLWSMKESFIKQEGKGLSLPLDSFSVRLHQDGQVSIELPDSHSPCYIKTYEVDPGYKMAVCAAHPDFPEDITMVSYEELL,transfer of 4′-phosphopantetheine group from CoA to apo-BlmI,apo-BlmI,can recognize apo-BlmI as a substrate
same,"in vitro 4′-phosphopantetheinylation with [^3H-pantetheine]-CoA, autoradiography",[5],"the apo-BlmI was quantitatively labeled by [^3H-pantetheine]-CoA, and no labeling was observed in the absence of either the apo-BlmI or the Sfp PPTase protein"
PptA: phosphopantetheinyl transferase of 246 amino acids encoded by pptA from S. verticillus ATCC15003 (protein) MIAALLPSWAVTEHAFTDAPDDPVSLLFPEEAAHVARAVPKRLHEFATVRVCARAALGRLGLPPGPLLPGRRGAPSWPDGVVGSMTHCQGFRGAAVARAADAASLGIDAEPNGPLPDGVLAMVSLPSEREWLAGLAARRPDVHWDRLLFSAKESVFKAWYPLTGLELDFDEAELAVDPDAGTFTARLLVPGPVVGGRRLDGFEGRWAAGEGLVVTAIAVAAPAGTAEESAEGAGKEATADDRTAVPHHHHHH,PPTase activity on type I PCP,MBlmX-2,robust phosphopantetheinylation activity
same,PPTase activity on type I ACP,BlmVIII,able to posttranslationally modified
same,PPTase activity on type II PCP,BlmI,robust phosphopantetheinylation activity
same,PPTase activity on type II ACP,TcmM,able to posttranslationally modified
